Patent publication US20130315910A1 (Xencor, published 2013)
Where a chain is given by its changes, count along the chain named. Numbers in names are those of the source.

B1: S239D/H268D/L328F (antibody, human IgG1, kappa)
heavy: EVQLVESGGGLVKPGGSLKLSCAASGYTFTSYVMHWVRQAPGKGLEWIGYINPYNDGTKYNEKFQGRVTISSDKSISTAYMELSSLRSEDTAMYYCARGTYYYGTRVFDYWGQGTLVTVSSASTKGPSVFPLAPSSKSTSGGTAALGCLVKDYFPEPVTVSWNSGALTSGVHTFPAVLQSSGLYSLSSVVTVPSSSLGTQTYICNVNHKPSNTKVDKKVEPKSCDKTHTCPPCPAPELLGGPDVFLFPPKPKDTLMISRTPEVTCVVVDVSDEDPEVKFNWYVDGVEVHNAKTKPREEQYNSTYRVVSVLTVLHQDWLNGKEYKCKVSNKAFPAPIEKTISKAKGQPREPQVYTLPPSREEMTKNQVSLTCLVKGFYPSDIAVEWESNGQPENNYKTTPPVLDSDGSFFLYSKLTVDKSRWQQGNVFSCSVMHEALHNHYTQKSLSLSPGK
light: DIVMTQSPATLSLSPGERATLSCRSSKSLQNVNGNTYLYWFQQKPGQSPQLLIYRMSNLNSGVPDRFSGSGSGTEFTLTISSLEPEDFAVYYCMQHLEYPITFGAGTKLEIKRTVAAPSVFIFPPSDEQLKSGTASVVCLLNNFYPREAKVQWKVDNALQSGNSQESVTEQDSKDSTYSLSSTLTLSKADYEKHKVYACEVTHQGLSSPVTKSFNRGEC
notes: HuAM4G7 anti-CD19 IgG1 (m1) with these Fc substitutions, EU index; copies: 2 + 2
B2: S239D/K326D/L328Y (antibody, human IgG1, kappa)
heavy: B1 heavy with D272H, K330D, F332Y
light: B1 light
notes: as for B1
B3: S239D/H268D/L328F/I332E (antibody, human IgG1, kappa)
heavy: B1 heavy with I336E
light: B1 light
notes: as for B1
B4: S298M (antibody, human IgG1, kappa)
heavy: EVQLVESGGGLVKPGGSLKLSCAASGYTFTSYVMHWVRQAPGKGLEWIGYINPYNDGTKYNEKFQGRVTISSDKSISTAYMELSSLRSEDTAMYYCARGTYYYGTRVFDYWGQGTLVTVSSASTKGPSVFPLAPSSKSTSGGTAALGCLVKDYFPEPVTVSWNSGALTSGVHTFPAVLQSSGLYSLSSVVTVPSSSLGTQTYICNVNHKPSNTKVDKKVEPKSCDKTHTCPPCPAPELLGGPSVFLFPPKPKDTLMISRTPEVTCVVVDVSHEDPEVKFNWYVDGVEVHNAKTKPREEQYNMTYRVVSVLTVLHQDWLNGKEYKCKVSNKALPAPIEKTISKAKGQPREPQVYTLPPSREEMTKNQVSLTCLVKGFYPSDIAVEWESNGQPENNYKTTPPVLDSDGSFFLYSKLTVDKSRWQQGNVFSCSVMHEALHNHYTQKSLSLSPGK
light: B1 light
notes: HuAM4G7 anti-CD19 IgG1 (m1) with this Fc substitution, EU index; copies: 2 + 2
B5: S298L (antibody, human IgG1, kappa)
heavy: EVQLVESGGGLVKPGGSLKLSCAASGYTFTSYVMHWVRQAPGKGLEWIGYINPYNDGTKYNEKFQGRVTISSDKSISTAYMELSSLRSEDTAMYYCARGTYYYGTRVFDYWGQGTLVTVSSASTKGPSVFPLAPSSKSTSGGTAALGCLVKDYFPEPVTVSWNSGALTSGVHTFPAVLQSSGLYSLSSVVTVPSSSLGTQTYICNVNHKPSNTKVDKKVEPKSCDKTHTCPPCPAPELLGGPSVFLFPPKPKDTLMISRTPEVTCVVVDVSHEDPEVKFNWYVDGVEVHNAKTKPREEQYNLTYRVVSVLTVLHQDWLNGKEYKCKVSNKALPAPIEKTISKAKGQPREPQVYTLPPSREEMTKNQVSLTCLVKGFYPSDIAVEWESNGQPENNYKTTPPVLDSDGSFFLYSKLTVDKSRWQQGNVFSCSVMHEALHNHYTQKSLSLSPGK
light: B1 light
notes: as for B4
B6: S239D/H268E/L328Y (antibody, human IgG1, kappa)
heavy: B1 heavy with D272E, F332Y
light: B1 light
notes: as for B1
B7: S239D/S267E/I332E (antibody, human IgG1, kappa)
heavy: B1 heavy with S271E, D272H, F332L, I336E
light: B1 light
notes: as for B1
B8: S239D/L328Y/I332E (antibody, human IgG1, kappa)
heavy: B1 heavy with D272H, F332Y, I336E
light: B1 light
notes: as for B1
B9: S239D/H268D/L328Y (antibody, human IgG1, kappa)
heavy: B1 heavy with F332Y
light: B1 light
notes: as for B1
B10: S239D/H268D/L328W (antibody, human IgG1, kappa)
heavy: B1 heavy with F332W
light: B1 light
notes: as for B1
B11: H268D/A327D/L328Y (antibody, human IgG1, kappa)
heavy: B1 heavy with D243S, A331D, F332Y
light: B1 light
notes: as for B1
B12: H268D/L328Y (antibody, human IgG1, kappa)
heavy: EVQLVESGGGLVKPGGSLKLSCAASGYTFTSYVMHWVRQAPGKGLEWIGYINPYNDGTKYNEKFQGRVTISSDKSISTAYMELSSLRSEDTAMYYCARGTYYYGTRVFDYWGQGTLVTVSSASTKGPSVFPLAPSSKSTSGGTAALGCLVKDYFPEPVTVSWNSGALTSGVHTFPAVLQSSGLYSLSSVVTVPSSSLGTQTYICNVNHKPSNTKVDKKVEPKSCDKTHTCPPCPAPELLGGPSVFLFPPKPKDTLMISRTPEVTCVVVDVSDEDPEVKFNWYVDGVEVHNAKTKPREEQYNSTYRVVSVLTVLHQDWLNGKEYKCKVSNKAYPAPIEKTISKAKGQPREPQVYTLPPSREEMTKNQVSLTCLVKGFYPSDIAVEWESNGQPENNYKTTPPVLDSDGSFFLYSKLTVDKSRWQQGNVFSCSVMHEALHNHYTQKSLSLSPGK
light: B1 light
notes: as for B1
B13: H268D/L328W/I332E (antibody, human IgG1, kappa)
heavy: B1 heavy with D243S, F332W, I336E
light: B1 light
notes: as for B1
B14: L234W/H268D/L328Y (antibody, human IgG1, kappa)
heavy: B1 heavy with L238W, D243S, F332Y
light: B1 light
notes: as for B1
B15: S239D/H268D/L328Y/I332E (antibody, human IgG1, kappa)
heavy: B1 heavy with F332Y, I336E
light: B1 light
notes: as for B1
B16: S239D/S267A/L328Y (antibody, human IgG1, kappa)
heavy: B1 heavy with S271A, D272H, F332Y
light: B1 light
notes: as for B1
B17: S239D/H268D/L328W/I332E (antibody, human IgG1, kappa)
heavy: B1 heavy with F332W, I336E
light: B1 light
notes: as for B1
B18: S239D/L328Y (antibody, human IgG1, kappa)
heavy: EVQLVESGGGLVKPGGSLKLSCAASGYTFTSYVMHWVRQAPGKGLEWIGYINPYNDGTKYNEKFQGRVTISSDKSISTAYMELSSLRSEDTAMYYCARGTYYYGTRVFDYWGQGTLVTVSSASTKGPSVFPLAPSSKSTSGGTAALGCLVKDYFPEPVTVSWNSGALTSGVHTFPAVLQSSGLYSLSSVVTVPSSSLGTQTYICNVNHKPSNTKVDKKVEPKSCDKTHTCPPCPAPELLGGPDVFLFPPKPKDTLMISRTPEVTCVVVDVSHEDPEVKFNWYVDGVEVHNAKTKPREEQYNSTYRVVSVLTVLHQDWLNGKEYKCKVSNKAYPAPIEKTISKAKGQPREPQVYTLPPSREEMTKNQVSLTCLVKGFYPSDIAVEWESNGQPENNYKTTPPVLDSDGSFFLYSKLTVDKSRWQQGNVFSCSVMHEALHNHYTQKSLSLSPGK
light: B1 light
notes: as for B1
B19: S239D/L328F/I332E (antibody, human IgG1, kappa)
heavy: B1 heavy with D272H, I336E
light: B1 light
notes: as for B1

These binders were tested against T1, cynoFcγRIIb (Macaca fascicularis, UniProt A0A140HDP4) (assay: SPR).
T1 construct: extracellular region, C-terminal His- and GST-tag; also called cynomolgus monkey FcγRIIb
T1 sequence (receptor extracellular region): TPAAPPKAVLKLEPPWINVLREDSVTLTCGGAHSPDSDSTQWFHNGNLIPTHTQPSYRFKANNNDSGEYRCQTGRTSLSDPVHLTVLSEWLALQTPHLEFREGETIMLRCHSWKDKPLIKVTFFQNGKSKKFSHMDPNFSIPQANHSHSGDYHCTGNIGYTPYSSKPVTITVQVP

Compared with B1, B2 is higher in “Fold vs WT IgG1 (Kd)” value: 3.17 fold for the first, 10.2 fold for the second.

Going from B3 to B4, the “Fold vs WT IgG1 (Kd)” value falls from 27.6 fold to 2.85 fold.

First: B5
Second: B6
The “Fold vs WT IgG1 (Kd)” value of the first is lower: 0.04 fold for the first, 5.87 fold for the second.

First: B7
Second: B8
The “Fold vs WT IgG1 (Kd)” value of the first is higher: 10 fold for the first, 5.12 fold for the second.

Compared with B9, B10 is higher in “Fold vs WT IgG1 (Kd)” value: 22.2 fold for the first, 23.7 fold for the second.

First: B11
Second: B12
The “Fold vs WT IgG1 (Kd)” value of the first is higher: 3.58 fold for the first, 2.92 fold for the second.

Going from B13 to B14, the “Fold vs WT IgG1 (Kd)” value falls from 7.46 fold to 4.63 fold.

First: B15
Second: B16
The “Fold vs WT IgG1 (Kd)” value of the first is higher: 9.1 fold for the first, 6.46 fold for the second.

Going from B17 to B18, the “Fold vs WT IgG1 (Kd)” value falls from 4.55 fold to 2.13 fold.

B19 was tested, and the “Fold vs WT IgG1 (Kd)” value was 3.09 fold.

The binders below were run against T2, mFcγRIIb (Mus musculus, UniProt P08101) (assay: SPR).
T2 construct: extracellular region, C-terminal His- and GST-tag; also called mouse FcγRII
T2 sequence (receptor extracellular region, looked up): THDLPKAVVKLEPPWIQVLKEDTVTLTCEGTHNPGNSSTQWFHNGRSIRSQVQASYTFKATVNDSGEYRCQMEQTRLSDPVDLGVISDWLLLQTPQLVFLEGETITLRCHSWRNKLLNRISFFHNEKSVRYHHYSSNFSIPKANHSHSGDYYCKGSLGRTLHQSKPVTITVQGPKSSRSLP

Compared with B1, B2 is higher in “Fold vs WT IgG1 (Kd)” value: 6.01 fold for the first, 131 fold for the second.

Compared with B3, B4 is lower in “Fold vs WT IgG1 (Kd)” value: 2.59 fold for the first, 0.549 fold for the second.

Going from B5 to B6, the “Fold vs WT IgG1 (Kd)” value rises from 0.208 fold to 26.5 fold.

Going from B7 to B8, the “Fold vs WT IgG1 (Kd)” value rises from 1 fold to 1.7 fold.

First: B9
Second: B10
The “Fold vs WT IgG1 (Kd)” value of the first is higher: 48.6 fold for the first, 47.8 fold for the second.

Compared with B11, B12 is lower in “Fold vs WT IgG1 (Kd)” value: 18.7 fold for the first, 2.79 fold for the second.

First: B13
Second: B14
The “Fold vs WT IgG1 (Kd)” value of the first is lower: 4.26 fold for the first, 5.92 fold for the second.

First: B15
Second: B16
The “Fold vs WT IgG1 (Kd)” value of the first is lower: 3.04 fold for the first, 46.5 fold for the second.

First: B17
Second: B18
The “Fold vs WT IgG1 (Kd)” value of the first is lower: 4.81 fold for the first, 11.5 fold for the second.

For B19, the “Fold vs WT IgG1 (Kd)” value was 2.09 fold.

These binders were tested against T3, human FcγRIIb receptor protein (R&D Systems) (human, UniProt P31994 46-217) (assay: SPR).
T3 construct: Bought protein injected over captured antibody in Biacore; also called CD32b
T3 sequence (looked up): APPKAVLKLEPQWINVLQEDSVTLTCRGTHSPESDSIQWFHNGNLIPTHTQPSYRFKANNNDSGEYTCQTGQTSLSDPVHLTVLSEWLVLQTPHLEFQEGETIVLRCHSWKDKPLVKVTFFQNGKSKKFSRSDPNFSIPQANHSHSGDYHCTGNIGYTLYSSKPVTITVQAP

First: B1
Second: B2
The “Fold vs WT IgG1” value of the first is lower: 8.79 fold for the first, 13 fold for the second.

Compared with B3, B6 is lower in “Fold vs WT IgG1” value: 53.2 fold for the first, 21.7 fold for the second.

First: B7
Second: B8
The “Fold vs WT IgG1” value of the first is higher: 124 fold for the first, 7.41 fold for the second.

Compared with B9, B10 is higher in “Fold vs WT IgG1” value: 24.4 fold for the first, 51.1 fold for the second.

Compared with B11, B12 is lower in “Fold vs WT IgG1” value: 3.49 fold for the first, 1.91 fold for the second.

Compared with B13, B14 is lower in “Fold vs WT IgG1” value: 39.8 fold for the first, 5.92 fold for the second.

Compared with B15, B16 is lower in “Fold vs WT IgG1” value: 54.1 fold for the first, 19.8 fold for the second.

Compared with B17, B18 is lower in “Fold vs WT IgG1” value: 27.8 fold for the first, 5.56 fold for the second.

With B19 the “Fold vs WT IgG1” value was 8.34 fold.

B1 and B2 are within 1.5-fold of each other in Kd: 167 nM for the first, 113 nM for the second.

Going from B3 to B6, the Kd rises from 27.6 nM to 67.7 nM (2.5-fold).

Compared with B7, B8 is 17-fold higher in Kd: 11.8 nM for the first, 198 nM for the second. The first binds more tightly here.

First: B9
Second: B10
The Kd of the first is 2.1-fold higher: 60.1 nM for the first, 28.7 nM for the second.

Compared with B11, B12 is 1.8-fold higher in Kd: 420 nM for the first, 767 nM for the second. The first binds more tightly here.

Compared with B13, B14 is 6.7-fold higher in Kd: 36.9 nM for the first, 248 nM for the second. The first binds more tightly here.

Compared with B15, B16 is 2.7-fold higher in Kd: 27.1 nM for the first, 74.1 nM for the second. The first binds more tightly here.

First: B17
Second: B18
The Kd of the first is 5-fold lower: 52.7 nM for the first, 264 nM for the second.

B19 was tested, and the Kd was 176 nM.

B4: no binding.
B5: no binding.
